Measured values: US20210139574A1 (UCB, published 2021)
Square brackets hold non-standard residues; d marks the D form. Ends that are not written are not given here. Tyr(3-NO2) = N[C@@H](Cc1ccc(O)c([N+](=O)[O-])c1)C(=O)O; pS = N[C@@H](COP(=O)(O)O)C(=O)O

B7: Tau-binding humanised antibody having the light chain of SEQ ID NO: 17 and the heavy chain of SEQ ID NO: 20 (antibody, human IgG4 S228P, kappa)
light: DIQMTQSPSSLSASVGDRVTITCQASQSVSSYLAWYQQKPGKAPKLLIYAASYLASGVPSRFSGSGSGTDFTLTISSLQPEDFATYYCQQGYTRTDIDNTFGGGTKVEIKRTVAAPSVFIFPPSDEQLKSGTASVVCLLNNFYPREAKVQWKVDNALQSGNSQESVTEQDSKDSTYSLSSTLTLSKADYEKHKVYACEVTHQGLSSPVTKSFNRGEC
heavy: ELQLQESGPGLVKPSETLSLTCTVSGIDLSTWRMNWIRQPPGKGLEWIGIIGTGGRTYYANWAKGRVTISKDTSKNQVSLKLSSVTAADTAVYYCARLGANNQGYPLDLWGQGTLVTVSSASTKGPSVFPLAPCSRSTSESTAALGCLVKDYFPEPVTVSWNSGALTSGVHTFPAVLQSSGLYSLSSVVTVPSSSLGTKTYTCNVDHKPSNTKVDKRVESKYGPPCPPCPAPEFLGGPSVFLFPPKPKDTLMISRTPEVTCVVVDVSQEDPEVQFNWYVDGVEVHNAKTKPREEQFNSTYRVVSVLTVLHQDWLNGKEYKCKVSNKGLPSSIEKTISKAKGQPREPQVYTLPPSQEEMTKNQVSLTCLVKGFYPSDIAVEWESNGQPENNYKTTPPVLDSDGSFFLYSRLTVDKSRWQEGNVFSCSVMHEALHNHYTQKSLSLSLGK

Legend:
[1] = molecular target: T1, Tau seeds: sonicated human insoluble Tau from patients with Alzheimer's disease (AD-PHF, fraction 8) (human, UniProt P10636-8 2-441, limits assumed); experiment: cell-based or functional assay
[2] = molecular target: T2, Tau seeds: brain fraction from transgenic mice expressing human Tau P301L (human, UniProt P10636-8 1-441, limits assumed); experiment: cell-based or functional assay
[3] = molecular target: Tau seeds: sonicated human insoluble Tau from patients with frontotemporal dementia (FTD-PHF) (human, UniProt P10636-8 2-441, limits assumed); experiment: cell-based or functional assay
[4] = molecular target: T3, Tau seeds: sonicated human insoluble Tau from patients with progressive supranuclear palsy (PSP-PHF, fraction … (human, UniProt P10636-8 2-441, limits assumed)); experiment: cell-based or functional assay
[5] = molecular target: T1, Tau seeds: sonicated human insoluble …; experiment: cell-based or functional assay; remark: listed apart in the source
[6] = molecular target: T2, Tau seeds: brain fraction from …; experiment: cell-based or functional assay; remark: listed apart in the source
[7] = molecular target: T3, Tau seeds: sonicated human insoluble …; experiment: cell-based or functional assay; remark: listed apart in the source
[8] = molecular target: T4, insoluble Tau protein preparation from Alzheimer's disease patients (AD-PHF), immobilised for Biacore (human, UniProt P10636-8 2-441, limits assumed); experiment: SPR (Biacore T200), AD-PHF (fraction 11) amine-immobilised on CM5, mFab as analyte
T4 construct: also called AD-PHF, fraction 11; Tau PHF fibrils from Alzheimer's disease patients
Description: (§1) Selected monoclonal Fab fragments (mFab) were prepared from murinised mAB 1 antibody with light chain of SEQ ID No.: 58 and heavy chain of SEQ ID No.: 59 using the Pierce Ficin cleavage kit (Cat. No. 44980, Thermo Scientific) according to the protocol of the manufacturer. Absorption at 280 nm was used to determine the concentration of the Fab stock solutions for the Biacore analysis. An insoluble Tau protein preparation from Alzheimer's disease patients (AD-PHF, fraction 11), the HEK-derived Tau isoform-2 monomers (amino acids 1-441), and the isoform-2 monomers expressed in E. coli were amine immobilized onto the CM5 chip, and binding of anti-Tau mFabs was measured with the Biacore T200 instrument. The buffer HBS-EP from GE Healthcare was used for immobilizations apart from the AD-PHF for which 10 mM acetic acid (pH3.0) was used. The HBS-EP+ buffer was supplemented with 300 mM NaCl and 1.25% CM-Dextran (Sigma) and used as the assay buffer. While flow cell (Fc) 1 was used as a reference, the following RU values were obtained for Fc2-4: 44 RU with 5 ug/ml E. coli Tau, 56 RU with 5 ug/m HEK Tau, and 500 RU with a 1:20 diluted solution of the AD-PHF material. Two 60 s cycles of 10 mM Glycine (pH1.7) were used for regeneration. Flow rates of 10 ul/min were used for immobilization and regeneration while a 30 ul/min flow rate was used for analyte binding. For AD-PHF, multiple manual injections were applied to reach 500 RU, including EDC/NHS and EtoA capping. Five start-up cycles and 12 cycles per mFab sample or buffer control were applied, using 90 uls analyte injections for either 180 s or 300 s for dissociation. 11 1:3 dilutions of a 600 nM solution plus buffer were used for each mFab.

[9] = molecular target: T5, HEK-derived Tau isoform-2 monomers (amino acids 1-441) (human, UniProt P10636 1-758); experiment: SPR (Biacore T200), Tau amine-immobilised on CM5, mFab as analyte
T5 construct: Expressed in Expi293F cells, N-terminal 10His-TEV tag removed with TEV protease; phosphorylation state not described; also called HEK iso-2; HEK Tau
Description: as §1, with “For AD-PHF, multiple manual injections were applied to reach 500 RU, including EDC/NHS and EtoA capping. Five start-up cycles and 12 cycles per mFab sample or buffer control were applied, using 90 uls analyte injections for either 180 s or 300 s for dissociation. 11 1:3 dilutions of a 600 nM solution plus buffer were used for each mFab.” left out

[10] = molecular target: B7; experiment: SPR competition: no significant inhibition of L17H20 binding to immobilised HEK Tau isoform-2
From the text: Recombinant Tau isoform-2 monomer (amino acids 1-441), expressed and purified from HEK cells, and insoluble Tau protein in the form of a paired helical filament preparation isolated from Alzheimer's disease patient brain (AD-PHF), were amine immobilized onto the CM5 chip using a Biacore 3000 instrument and HBS-EP (GE Healthcare) as running buffer. The former were amine coupled to flow cells 2 and 4 respectively following activation of the carboxymethyl dextran surface these and reference flow cells by injection of 70 μl of a fresh mixture of 50 mM N-hydroxysuccimide and 200 mM 1-ethyl-3-(3-dimethylaminopropyl)-carbodiimide at a flow rate of 10 μl/min. Immobilization of tau monomer was achieved by injecting 160 μl at 50 μg/ml in 10 mM acetate pH 5.0 buffer, whereas AD-PHF was immobilized by injecting twenty 160 μl aliquots at 2 μg/ml in 10 mM acetic acid (pH3.0). […]
Epitope mapping was carried out by pre-incubating solutions of a Tau-binding humanised antibody having the light chain of SEQ ID NO: 17 and the heavy chain of SEQ ID NO: 20 (L17H20) and test peptide or buffer controls, prepared in running buffer at 200 nM and 5000 nM respectively. […] Response units of antibody binding were recorded at report points taken 15 sec after the end of each injection as the difference between values of test and reference flow cells. […]

T2 sequence (P10636 other isoform, or with tags, fused parts or gaps P301L P301L limits assumed): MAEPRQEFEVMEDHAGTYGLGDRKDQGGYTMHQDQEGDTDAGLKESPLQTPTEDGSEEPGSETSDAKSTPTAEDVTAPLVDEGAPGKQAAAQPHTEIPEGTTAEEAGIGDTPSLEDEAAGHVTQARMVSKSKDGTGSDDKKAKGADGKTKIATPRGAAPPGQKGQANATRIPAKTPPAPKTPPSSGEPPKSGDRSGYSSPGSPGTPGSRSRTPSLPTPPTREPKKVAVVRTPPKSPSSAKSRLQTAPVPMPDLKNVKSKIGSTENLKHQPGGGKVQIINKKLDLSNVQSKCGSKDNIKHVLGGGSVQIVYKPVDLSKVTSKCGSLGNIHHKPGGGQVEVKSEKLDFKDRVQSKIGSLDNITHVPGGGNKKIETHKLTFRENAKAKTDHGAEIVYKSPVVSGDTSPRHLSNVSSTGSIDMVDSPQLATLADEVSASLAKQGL
Tau seeds: sonicated human insoluble Tau from patients with frontotemporal dementia (FTD-PHF), sequence (P10636 other isoform, or with tags, fused parts or gaps limits assumed): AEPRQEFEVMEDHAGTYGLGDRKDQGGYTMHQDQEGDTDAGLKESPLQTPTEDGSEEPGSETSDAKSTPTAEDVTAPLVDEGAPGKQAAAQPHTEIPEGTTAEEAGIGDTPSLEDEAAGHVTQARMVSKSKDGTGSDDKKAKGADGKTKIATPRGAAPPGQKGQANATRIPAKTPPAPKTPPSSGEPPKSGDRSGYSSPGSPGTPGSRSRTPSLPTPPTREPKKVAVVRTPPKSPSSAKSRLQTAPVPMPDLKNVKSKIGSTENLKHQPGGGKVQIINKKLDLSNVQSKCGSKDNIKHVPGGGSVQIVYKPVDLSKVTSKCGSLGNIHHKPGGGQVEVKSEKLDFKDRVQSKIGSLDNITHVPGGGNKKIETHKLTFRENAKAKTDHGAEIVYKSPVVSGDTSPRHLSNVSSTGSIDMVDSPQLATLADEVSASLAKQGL
T3 sequence (P10636 other isoform, or with tags, fused parts or gaps limits assumed): as above
T4 sequence (P10636 other isoform, or with tags, fused parts or gaps limits assumed): as above
T1 sequence (P10636 other isoform, or with tags, fused parts or gaps limits assumed): as above
T5 sequence (P10636 other isoform, or with tags, fused parts or gaps): as the sequence (P10636 other isoform, or with tags, fused parts or gaps P301L P301L limits assumed) above, with L301P counted along it

B1: AB1 having a murinised VL of SEQ ID NO: 9 and a murinised VH of SEQ ID NO.: 10 (antibody, V domains shown)
VH: QVQLKESGPGLVAPSQSLSITCTVSGIDLSTWRMNWVRQPPGKGLEWIGIIGTGGRTYYANWAKGRFSISKDSTQVFLKMNSLQTEDTATYFCARLGANNNGYPLDLWGAGTTVTVSS
VL: DVVMTQSPASLAVSLGQRATISCQASQSVSSYLAWYQQKPGQPPKLLIYAASYLASGVPSRFKGSGSGTEFTLNIHPVEEEDAATYYCQQGYTRTDIDNTFGGGTKLEIK
[1]
  IC50, cellular Tau aggregation assay: 10 nM
  Imax (maximal efficacy at 300 nM), cellular Tau aggregation assay: 79%
[2]
  IC50, cellular Tau aggregation assay: 9 nM
  Imax (maximal efficacy at 300 nM), cellular Tau aggregation assay: 81%
[3]
  IC50, cellular Tau aggregation assay: 1 nM
  Imax (maximal efficacy at 300 nM), cellular Tau aggregation assay: 81%
[4]
  Imax (maximal efficacy at 300 nM), cellular Tau aggregation assay: 54%
[5]
  IC50, cellular Tau aggregation assay (n=3): 27 nM
[6]
  IC50, cellular Tau aggregation assay (n=2): 15 nM
[7]
  IC50, cellular Tau aggregation assay (n=3): 70 nM

B2: mFab from murinised mAB1 antibody with light chain of SEQ ID No.: 58 and heavy chain of SEQ ID No.: 59 (Fab, V domains shown)
VH: QVQLKESGPGLVAPSQSLSITCTVSGIDLSTWRMNWVRQPPGKGLEWIGIIGTGGRTYYANWAKGRFSISKDSTQVFLKMNSLQTEDTATYFCARLGANNNGYPLDLWGAGTTVTVSS
VL: DVVMTQSPASLAVSLGQRATISCQASQSVSSYLAWYQQKPGQPPKLLIYAASYLASGVPSRFKGSGSGTEFTLNIHPVEEEDAATYYCQQGYTRTDIDNTFGGGTKLEIKR
notes: Fab made by ficin cleavage of the whole antibody; also called mFab from mAB1
[8]
  Kd: 590 nM
  koff: 0.047 s⁻¹
  kon: 79600 M⁻¹ s⁻¹
[9]
  binding result: no binding (tested: 600 nM)

B3: T197H test peptide (nY pS pS P G) (peptide)
peptide: [Tyr(3-NO2)][pS][pS]PG
[10]
  binding result: no binding (tested: 5000 nM peptide)

B4: Tau-binding antibody having the light chain of SEQ ID No.: 17 and the heavy chain of SEQ ID No.:23 (antibody, human IgG1, kappa)
light: DIQMTQSPSSLSASVGDRVTITCQASQSVSSYLAWYQQKPGKAPKLLIYAASYLASGVPSRFSGSGSGTDFTLTISSLQPEDFATYYCQQGYTRTDIDNTFGGGTKVEIKRTVAAPSVFIFPPSDEQLKSGTASVVCLLNNFYPREAKVQWKVDNALQSGNSQESVTEQDSKDSTYSLSSTLTLSKADYEKHKVYACEVTHQGLSSPVTKSFNRGEC
heavy: not shown
[4]
  Imax (maximal efficacy at 300 nM), cellular Tau aggregation assay: 49%

B5: Tau-binding antibody having the light chain of SEQ ID No.: 17 and the heavy chain of SEQ ID No.:24 (antibody, human IgG1, kappa)
light: DIQMTQSPSSLSASVGDRVTITCQASQSVSSYLAWYQQKPGKAPKLLIYAASYLASGVPSRFSGSGSGTDFTLTISSLQPEDFATYYCQQGYTRTDIDNTFGGGTKVEIKRTVAAPSVFIFPPSDEQLKSGTASVVCLLNNFYPREAKVQWKVDNALQSGNSQESVTEQDSKDSTYSLSSTLTLSKADYEKHKVYACEVTHQGLSSPVTKSFNRGEC
heavy: not shown
[4]
  Imax (maximal efficacy at 300 nM), cellular Tau aggregation assay: 47%

B6: Tau-binding antibody having the light chain of SEQ ID No.: 17 and the heavy chain of SEQ ID No.:21 (antibody, human IgG4 S228P, kappa)
light: DIQMTQSPSSLSASVGDRVTITCQASQSVSSYLAWYQQKPGKAPKLLIYAASYLASGVPSRFSGSGSGTDFTLTISSLQPEDFATYYCQQGYTRTDIDNTFGGGTKVEIKRTVAAPSVFIFPPSDEQLKSGTASVVCLLNNFYPREAKVQWKVDNALQSGNSQESVTEQDSKDSTYSLSSTLTLSKADYEKHKVYACEVTHQGLSSPVTKSFNRGEC
heavy: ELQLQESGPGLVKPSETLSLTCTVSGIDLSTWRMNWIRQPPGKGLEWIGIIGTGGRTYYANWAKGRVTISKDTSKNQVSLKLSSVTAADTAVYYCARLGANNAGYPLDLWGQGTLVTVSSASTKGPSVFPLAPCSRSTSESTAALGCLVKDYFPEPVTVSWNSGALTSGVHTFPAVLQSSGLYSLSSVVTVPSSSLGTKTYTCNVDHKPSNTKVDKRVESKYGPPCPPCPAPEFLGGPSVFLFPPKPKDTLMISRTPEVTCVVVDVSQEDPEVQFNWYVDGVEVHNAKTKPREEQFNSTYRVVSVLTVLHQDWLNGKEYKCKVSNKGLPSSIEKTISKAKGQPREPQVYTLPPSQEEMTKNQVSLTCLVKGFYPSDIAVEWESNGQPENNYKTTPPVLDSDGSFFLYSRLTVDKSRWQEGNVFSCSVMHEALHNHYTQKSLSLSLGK
[4]
  IC50, cellular Tau aggregation assay: 66 nM
  Imax (maximal efficacy at 300 nM), cellular Tau aggregation assay: 47%

## B7
[1]
  IC50, cellular Tau aggregation assay: 2 nM
  Imax (maximal efficacy at 300 nM), cellular Tau aggregation assay: 85%
[3]
  IC50, cellular Tau aggregation assay: 1 nM
  Imax (maximal efficacy at 300 nM), cellular Tau aggregation assay: 79%
[4]
  IC50, cellular Tau aggregation assay: 42 nM
  Imax (maximal efficacy at 300 nM), cellular Tau aggregation assay: 65%
